Experimental data: PMC12607020, “NITAC-mediated ISGylation of eIF4E2 attenuates GSK3β proline-directed kinase activity, conferring cytoprotection” (The Journal of Biological Chemistry, 2025)

Molecular target: T1, GST-eIF4E2 (UniProt O60573 1-245)
T1 construct: eukaryotic translation initiation factor 4E family member 2 (eIF4E2, 4EHP); also called GST-tagged eIF4E2; source: E. coli BL21, purified (glutathione sepharose beads)
T1 sequence (looked up): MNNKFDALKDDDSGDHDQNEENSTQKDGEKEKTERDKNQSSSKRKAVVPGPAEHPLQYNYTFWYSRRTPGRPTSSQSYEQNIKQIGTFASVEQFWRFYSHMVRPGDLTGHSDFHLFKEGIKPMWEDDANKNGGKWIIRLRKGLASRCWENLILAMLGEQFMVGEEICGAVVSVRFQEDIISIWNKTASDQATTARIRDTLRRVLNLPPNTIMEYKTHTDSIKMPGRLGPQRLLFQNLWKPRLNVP
Assay: pull-down; GST pull-down: 1 nM His6-tagged and 1 nM GST-tagged protein in 50 mM Hepes pH 7.5, 50 mM NaCl, 2 mM EDTA, 0.1% NP-40, 10% glycerol, 2 h at 4 °C; glutathione-sepharose beads; immunoblot
Settings: both partners purified

Binder	binding result
His6-tagged Nb.28E11 (VHH, nanobody from a synthetic yeast-display library; also called His6-Nb.28E11; source: E. coli BL21, purified (Ni-NTA)) VHH: QVQLQESGGGLVQAGGSLRLSCAASGRTFSSYAMGWFRQAPGKEREFVAAISSGGSITNYADSVKGRFTISRDNAKNTVYLQMNSLKPEDTAVYYCAARYHSLYYGYWGQGTQVTVSS	binds
His6-tagged Nb.30C7 (VHH, nanobody from a synthetic yeast-display library; also called His6-Nb.30C7; source: E. coli BL21, purified (Ni-NTA)) VHH: QVQLQESGGGLVQAGGSLRLSCAASGYTFSSNVMGWFRQAPGKEREFVAAINSGGGRTNYADSVKGRFTISRDNAKNTVYLQMNSLKPEDTAVYYCAAYGRANSSYNYGYWGQGTQVTVSS	binds
